Source: patent publication EP4663661A1 (Hainan Simcere Zaiming Pharmaceutical Co., Ltd., dated 2025)
Like-named read-outs stand apart in the source and are kept apart here.

T1: his-tagged human CDH6 extracellular region protein (hCDH6 ECD-his) (human, UniProt P55285 54-615)
T1 construct: also called hCDH6-his; Human CDH6-his; not shown: his tag
T1 sequence: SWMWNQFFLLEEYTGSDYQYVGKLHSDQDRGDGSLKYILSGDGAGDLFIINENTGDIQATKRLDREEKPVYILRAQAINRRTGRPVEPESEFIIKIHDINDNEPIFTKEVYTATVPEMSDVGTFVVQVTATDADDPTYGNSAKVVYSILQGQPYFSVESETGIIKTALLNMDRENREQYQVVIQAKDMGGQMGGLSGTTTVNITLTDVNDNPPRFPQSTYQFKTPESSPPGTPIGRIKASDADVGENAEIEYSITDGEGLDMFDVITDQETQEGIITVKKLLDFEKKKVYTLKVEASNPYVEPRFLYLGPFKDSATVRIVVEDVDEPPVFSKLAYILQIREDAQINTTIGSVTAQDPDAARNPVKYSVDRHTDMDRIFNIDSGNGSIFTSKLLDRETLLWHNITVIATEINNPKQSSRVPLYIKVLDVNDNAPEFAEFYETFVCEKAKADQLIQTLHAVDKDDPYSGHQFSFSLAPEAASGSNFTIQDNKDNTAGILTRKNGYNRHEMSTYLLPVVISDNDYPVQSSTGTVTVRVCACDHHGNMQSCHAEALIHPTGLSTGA


Legend:
[1] = molecular target: his-tagged human CDH6 extracellular region protein (hCDH6 ECD-his) (human) (UniProt P55285); experiment: ELISA, antigen coated
[2] = molecular target: monkey CDH6 protein (cynoCDH6 ECD-his) (monkey (cyno)); experiment: ELISA, antigen coated
[3] = molecular target: murine CDH6 protein (mCDH6 ECD-his) (mouse) (UniProt P97326); experiment: ELISA, antigen coated
[4] = molecular target: human CDH6 protein, full length, on cells (OVCAR3, PA-1) (human) (UniProt P55285); experiment: FACS, PA-1 cells
[5] = molecular target: human CDH6 protein, full length, on cells (OVCAR3, PA-1) (human) (UniProt P55285); experiment: FACS, OVCAR3 cells
[6] = molecular target: human CDH6 with EC3 removed, on HEK293T cells (HEK293T-hCDH6-EC3 deletion) (human) (UniProt P55285); experiment: FACS, HEK293T-hCDH6-EC3 deletion cells
[7] = molecular target: human CDH6 with EC5 removed, on HEK293T cells (HEK293T-hCDH6-EC5 deletion) (human) (UniProt P55285); experiment: FACS, HEK293T-hCDH6-EC5 deletion cells
[8] = molecular target: human CDH6 with EC4 removed, on HEK293T cells (HEK293T-hCDH6-EC4 deletion) (human) (UniProt P55285); experiment: FACS, HEK293T-hCDH6-EC4 deletion cells
[9] = molecular target: human CDH6 with EC1 removed, on HEK293T cells (HEK293T-hCDH6-EC1 deletion) (human) (UniProt P55285); experiment: FACS, HEK293T-hCDH6-EC1 deletion cells
[10] = molecular target: human CDH6 with EC2 removed, on HEK293T cells (HEK293T-hCDH6-EC2 deletion) (human) (UniProt P55285); experiment: FACS, HEK293T-hCDH6-EC2 deletion cells
[11] = molecular target: T1, his-tagged human CDH6 extracellular …; experiment: SPR Biacore, antibody captured on Protein A chip
[12] = molecular target: T1, his-tagged human CDH6 extracellular …; experiment: ELISA, antigen coated
[13] = molecular target: T1, his-tagged human CDH6 extracellular …; experiment: ELISA, antigen coated; remark: listed apart in the source

Row | Max OD450 [3] [OD450] | EC50 [3] [nM] | Max MFI [6] [MFI] | Max MFI [7] [MFI] | Max MFI [8] [MFI] | Max MFI [9] [MFI] | Max MFI [10] [MFI] | other results | Molecule
1 | 0.1 | – | – | – | – | – | – | Max OD450 [1]: 0.07 OD450; Max OD450 [2]: 0.06 OD450; Max MFI [4]: 64 MFI; Max MFI [5]: 63 MFI | hIgG1 (antibody)
2 | 1.6 | 0.025 | – | – | – | – | – | – | CHI-CDH6-6 (antibody, human IgG1, kappa, V domains shown) VH: EVQLQQSGPELVKPGDSVKMSCKASGYTFTDYYMAWVRQSHRKSLEWIGYIFPNSGGTDYSQKFKGKATLTVDKSSSTVYMELHSLTSEDSAVYYCARELGADYGDYYAMDHWGQGTSVSVSS VL: DIQMTQSPASLSASVGETVTITCRASENIDSYLAWYQQKQGKSPQLLVYSATLLADGVPSRFSGSGSGTQYSLKINSLKSEDVARYYCQHYYRTPPTFGSGTKLEIKR
3 | 2.12 | 0.058 | 9060 | 1020 | 17400 | 88 | 13000 | – | CHI-CDH6-7 (antibody, human IgG1, kappa, V domains shown) VH: EVKLVESGGGLVKPGGSLKVSCAASGFTFSDHGMAWVRQAPGKGPEWVAFISNLAYSIYYADTVTGRFTISRENAKNTLYLEMSSLRSEDTAMYYCARVYVKWYFDVWGAGTTVTVSS VL: DIQMTQSPASLSASVGETVTITCRASENIDSYLAWYQQKQGKSPQLLVFAATLLADGVPSRFSGSGSGTQYSLKINSLQSEDVARYYCQHYYSTPLTFGAGTKLELKR
4 | 1.82 | 0.028 | – | – | – | – | – | – | CHI-CDH6-8 (antibody, human IgG1, kappa, V domains shown) VH: EVQLQQSGPELVKPGDSVKMSCKASGYTFTDYYMAWIKQNHGKSLEWIGYIYPNNGGTDYNQKFRGKATLTVDKSSSAAYMELHSLTSEDSAVYYCAREIGTLYGDYYAMDYWGQGTSVTVSS VL: DIQMTQSPASLSASVGETVTITCRASENIDSYLAWYQQKQGKSPQLLVYTATLLADGVPSRFSGSGSGTQYSLKINSLQSEDVARYYCQHYYSTPPTFGSGTKLEIKR
5 | 1.62 | 0.023 | – | – | – | – | – | – | CHI-CDH6-2 (antibody, human IgG1, kappa, V domains shown) VH: EVQLQQSGPELVKPGASVRISCKASGYTFTDYYMNWVKQSHGKSLEWIGDIDPNNANTTYNQKFKGKATLTVDKSSSTAYMELRSLTSEDSAVYSCASFGYDVEWFGYWGQGTLVTVSA VL: QIVLTQSPALMSASPGEKVTMTCSASSSVSYMYWYQQKPRSSPKPWIYLTSNLASGVPARFSGSGSGTSYSLTISSMEAEDAATYYCQQWSSNPFTFGSGTKLEIKR
6 | 2.76 | 0.016 | – | – | – | – | – | – | CHI-CDH6-13 (antibody, human IgG1, kappa, V domains shown) VH: DVQLQESGPGLVKPSQSLSLTCSVTGYSITKDSYWNWIRQFPGSKLEWMGFISYDGSRHYNPSLKNRISITRDTSKNQFFLQLNSVTTEDTATYYCARRDYADYWGQGTTLTVSS VL: QIVLTQSPALMSAFPGEKVTMTCSATSSVSYIYWYQQKPRSSPKPWIYLTSNLASGVPARFSGSGSGTSYSLTINSLEAEDAATYYCQQWSSIPYTFGGGTKLEIKR
7 | 0.6 | – | – | 1530 | 11800 | 5290 | 8390 | – | DS-H01L02 (antibody, human IgG1, kappa, V domains shown) VH: EVQLVQSGAEVKKPGASVKVSCKASGYTFTRNFMHWVRQAPGQGLEWMGWIYPGDGETEYAQKFQGRVTITADTSTSTAYMELSSLRSEDTAVYYCARGVYGGFAGGYFDFWGQGTLVTVSS VL: DIQMTQSPSSLSASVGDRVTITCKASQNIYKNLAWYQQKPGKAPKLLIYDANTLQTGVPSRFSGSGSGSDFTLTISSLQPEDFATYFCQQYYSGWAFGQGTKVEIKR
8 | – | – | – | – | – | – | – | kon [11]: 2100 M⁻¹ s⁻¹ | hCDH6-1-H1L1 (antibody, human IgG1, kappa, V domains shown) VH: EVQLVQSGAEVKKPGSSVKVSCKASGYTFSNYWMHWVRQAPGQGLEWMGDIDPSHSETHYTQKFKDRVTITVDKSTSTAYMELSSLRSEDTAVYYCARGDLGRFDYWGQGTTVTVSS VL: DIVMTQSPDSLAVSLGERATINCRASESVSIHGTHLMHWYQQKPGQPPKLLIYAASNLESGVPDRFSGSGSETDFTLTISSLQAEDVAVYYCQQSFEDPWTFGGGTKVEIKR
9 | 1.92 | 0.046 | 12200 | 4240 | 18700 | 112 | 343 | – | CHI-CDH6-5 (antibody, human IgG1, kappa, V domains shown) VH: QVQLQQSGAELVRPGTSVKMSCKAAEYTFTNYWIGWVKQRPGHGLEWIGDLYPGGDHANYNEKFEGKATLTADTSSSTAYMQLSSLTSEDSAIYYCARGMLTTGFDSWGQGTTLTVSS VL: DIVMSQSPSSLAVSAGEKVTMSCKSSQSLFNSRTRKNYLAWYQQKPGQSPKLLIYWASTRESGVPDRFTGSGSGTDFTLTISSVQAEDLAVYYCKQSYYLRTFGGGTKLEIKR
10 | 2.32 | 0.035 | 15100 | 6540 | 22200 | 10200 | 75 | – | CHI-CDH6-4 (antibody, human IgG1, kappa, V domains shown) VH: QVQLQQSGPELVKPGASVKISCKASGYAFSNFWMNWVKQRPGKGLEWIGWIYPGDGDTNYNGKFKDKATLTADKSSSTAYIQLSSLTSEDSAVYFCARLYDAWGFFDYWGQGTTLTVSS VL: QIVLTQSPAIMSASPGQKVTITCSASSSVNYMHWYQQKLGSSPKLWIYDKSKLAPGVPARFSGSGSGTSYSLTISSMEAEDAASYFCHQWSSYPPMTFGGGTKLEIKR
11 | 2.48 | 0.049 | 755 | 4040 | 26600 | 7210 | 814 | Max OD450 [12]: 2.65 OD450; Max OD450 [13]: 2.5 OD450 | CHI-CDH6-14 (antibody, human IgG1, kappa, V domains shown, also called CHI- hCDH6-14) VH: QIQLQQSGPELVKPGTSVKISCKASGYTFTDNYINWVRQRPGQGLEWIGWIYPGTGNSYYNEKFKGKATLTVDTSSSTAYMQFSSLTSEDSAVYLCASSYGDSFDYWGQGTTLTVSS VL: DIQMTQTTSSLSASLGNRVTISCRASQDIRNYLNWYQQKPDGTFKLLISYTSRLHSGVPSRFSGSGSGTDYSLTVSNLEPEDIATYYCQQYSQLPWTFGGGSRLEIKR
12 | 2.77 | 0.022 | – | – | – | – | – | – | CHI-CDH6-9 (antibody, human IgG1, kappa, V domains shown) VH: QVQLQQPGAELVKPGASVKLSCKASGYTFTGYWMHWVRQRPGQGLEWIGEINPNNGGTNCNEQFKNKATLTVDKSSSTAYMQLSSLTSEDSAVFYCTISFGNYLFFDVWGAGTTVTVSS VL: DIQMTQSPASLAASVGETITITCQASENIYFSLAWYQQKQGKSPQLLIYNANTLEDGVPSRFVGSGSGTQYSMKINSIQPEDTATYFCDQTYDFPWTFGGGTKLEIKR
13 | 1.77 | 0.04 | – | – | – | – | – | – | CHI-CDH6-11 (antibody, human IgG1, kappa, V domains shown) VH: QIQLQQSGPELVKPGASVRISCKASGYTFTDYYITWVKLRPGQGLEWIGWIYPGSVNIKYNEKFKGKATLTVDTSSSTAYMQLNSLTSEDSAVYFCARGGYSWFPYWGQGTLVTVSA VL: NIVMTQSPKSMSMSVGERVTLSCKASENVHTYVSWYQQKPEQSPKLLFYGASTRNTGVPDRFTGSGSATDFTLTISSVQAEDLADYYCGQSYSYPYTFGSGTKLEIKR
14 | 2.38 | 0.051 | 689 | 5610 | 16800 | 11100 | 7550 | – | CHI-CDH6-3 (antibody, human IgG1, kappa, V domains shown) VH: QVQLQQPGAELVKPGASVKLSCKASGYTFTSYWIHWVKQRPGQGLEWIGEINPSNGVTNCNENFKSKATLTVDKSSSTAYMQLSSLTSEDSAVYYCTIPNLLWWYFDVWGAGTTVTVSS VL: DIQMTQSPASLSVSVGETVTITCRASENIYSNLAWYQQKQGKSPQLLVYEATNLADGVPSRFSGSGSGTQYSLKINSLQSEDFGSYYCQHFWGTLWTFGGGTKLEIKR
15 | 2.42 | 0.039 | 16300 | – | 20600 | 23600 | 39100 | – | NOV0712 (antibody, human IgG1, kappa, V domains shown) VH: QVQLLESGGGLVQPGGSLRLSCAASGFTFSSHGMHWVRQAPGKGLEWVSVISGSGSNTGYADSVKGRFTISRDNSKNTLYLQMNSLRAEDTAVYYCARQWGSYAFDSWGQGTLVTVSS VL: DIQMTQSPSSLSASVGDRVTITCRASQSISSYLNWYQQKPGKAPKLLIYAVSTLQSGVPSRFSGSGSGTDFTLTISSLQPEDFATYYCQQSGTFPPTTFGQGTKVEIKR
